Assay results: article PMC3276697 (Traffic (Copenhagen, Denmark), 2012)

Molecular target: T1, Vps4(E233Q), the ATP-locked form of Vps4 (S. cerevisiae, UniProt P52917 1-437, E233Q)
T1 sequence (looked up): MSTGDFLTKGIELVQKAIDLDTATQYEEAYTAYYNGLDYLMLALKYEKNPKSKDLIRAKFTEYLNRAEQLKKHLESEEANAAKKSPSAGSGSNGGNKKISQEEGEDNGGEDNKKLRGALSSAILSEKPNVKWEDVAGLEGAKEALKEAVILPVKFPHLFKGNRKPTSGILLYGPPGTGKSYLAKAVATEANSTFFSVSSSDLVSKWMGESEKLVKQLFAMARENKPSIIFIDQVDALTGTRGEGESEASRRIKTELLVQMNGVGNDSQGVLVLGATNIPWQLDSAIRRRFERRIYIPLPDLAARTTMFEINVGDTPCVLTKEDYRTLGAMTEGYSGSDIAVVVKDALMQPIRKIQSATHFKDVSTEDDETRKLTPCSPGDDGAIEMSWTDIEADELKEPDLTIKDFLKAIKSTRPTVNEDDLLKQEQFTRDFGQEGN
Assay: pull-down

binding result: binds
B1: GST-Did2(CT) (amino acids 113-204), the C-terminal half of Did2 (domain or fragment, S. cerevisiae, UniProt P69771 113-204, looked up)
chain: QQITMIMDKFEQQFEDLDTSVNVYEDMGVNSDAMLVDNDKVDELMSKVADENGMELKQSAKLDNVPEIKAKEVNVDDEKEDKLAQRLRALRG
